From patent publication US9657062B2, “Ghrelin analogues” (Zealand Pharma A/S, priority 2012, dated 2017)
*1 amine or outer side, *2 acyl side, *3 side chain or, on linkers, in order; H or OH if unused. Side-chain parts run from the residue outwards. [ ]: non-standard residue; d: D form. The star is where a group is joined. γGlu = O=C(O)[C@H](CCC(=O)[*:2])N[*:1]; Palmitoyl = CCCCCCCCCCCCCCCC(=O)*; Octanoyl = CCCCCCCC(=O)*; Dap = NC[C@H](N)C(=O)O; Octyl = CCCCCCCC*

B1: H-PS-Dap(N-octanoyl)-FLSPY-NH2 (peptide)
peptide: H-PS[Dap](Octanoyl)FLSPY-NH2
SMILES: CCCCCCCC(=O)NC[C@H](NC(=O)[C@H](CO)NC(=O)[C@@H]1CCCN1)C(=O)N[C@@H](Cc1ccccc1)C(=O)N[C@@H](CC(C)C)C(=O)N[C@@H](CO)C(=O)N1CCC[C@H]1C(=O)N[C@@H](Cc1ccc(O)cc1)C(N)=O
B2: H-PS-S(O-octyl)-FLSPEHSRVSSRKESSKPPAKLSPR-NH2 (peptide)
peptide: H-PSS(Octyl)FLSPEHSRVSSRKESSKPPAKLSPR-NH2
SMILES: CCCCCCCCOC[C@H](NC(=O)[C@H](CO)NC(=O)[C@@H]1CCCN1)C(=O)N[C@@H](Cc1ccccc1)C(=O)N[C@@H](CC(C)C)C(=O)N[C@@H](CO)C(=O)N1CCC[C@H]1C(=O)N[C@@H](CCC(=O)O)C(=O)N[C@@H](Cc1c[nH]cn1)C(=O)N[C@@H](CO)C(=O)N[C@@H](CCCNC(=N)N)C(=O)N[C@H](C(=O)N[C@@H](CO)C(=O)N[C@@H](CO)C(=O)N[C@@H](CCCNC(=N)N)C(=O)N[C@@H](CCCCN)C(=O)N[C@@H](CCC(=O)O)C(=O)N[C@@H](CO)C(=O)N[C@@H](CO)C(=O)N[C@@H](CCCCN)C(=O)N1CCC[C@H]1C(=O)N1CCC[C@H]1C(=O)N[C@@H](C)C(=O)N[C@@H](CCCCN)C(=O)N[C@@H](CC(C)C)C(=O)N[C@@H](CO)C(=O)N1CCC[C@H]1C(=O)N[C@@H](CCCNC(=N)N)C(N)=O)C(C)C
B3: H-PS-Dap(N-octanoyl)-FLSPK-NH2 (peptide)
peptide: H-PS[Dap](Octanoyl)FLSPK-NH2
SMILES: CCCCCCCC(=O)NC[C@H](NC(=O)[C@H](CO)NC(=O)[C@@H]1CCCN1)C(=O)N[C@@H](Cc1ccccc1)C(=O)N[C@@H](CC(C)C)C(=O)N[C@@H](CO)C(=O)N1CCC[C@H]1C(=O)N[C@@H](CCCCN)C(N)=O
B4: H-PS-S(O-octyl)-FLSPEHSRVSSRKESSSPPAKLSPR-NH2 (peptide)
peptide: H-PSS(Octyl)FLSPEHSRVSSRKESSSPPAKLSPR-NH2
SMILES: CCCCCCCCOC[C@H](NC(=O)[C@H](CO)NC(=O)[C@@H]1CCCN1)C(=O)N[C@@H](Cc1ccccc1)C(=O)N[C@@H](CC(C)C)C(=O)N[C@@H](CO)C(=O)N1CCC[C@H]1C(=O)N[C@@H](CCC(=O)O)C(=O)N[C@@H](Cc1c[nH]cn1)C(=O)N[C@@H](CO)C(=O)N[C@@H](CCCNC(=N)N)C(=O)N[C@H](C(=O)N[C@@H](CO)C(=O)N[C@@H](CO)C(=O)N[C@@H](CCCNC(=N)N)C(=O)N[C@@H](CCCCN)C(=O)N[C@@H](CCC(=O)O)C(=O)N[C@@H](CO)C(=O)N[C@@H](CO)C(=O)N[C@@H](CO)C(=O)N1CCC[C@H]1C(=O)N1CCC[C@H]1C(=O)N[C@@H](C)C(=O)N[C@@H](CCCCN)C(=O)N[C@@H](CC(C)C)C(=O)N[C@@H](CO)C(=O)N1CCC[C@H]1C(=O)N[C@@H](CCCNC(=N)N)C(N)=O)C(C)C
B5: H-PS-S(O-octyl)-FLSPEHSRVSSRPESSSPPAKLSPR-NH2 (peptide)
peptide: H-PSS(Octyl)FLSPEHSRVSSRPESSSPPAKLSPR-NH2
SMILES: CCCCCCCCOC[C@H](NC(=O)[C@H](CO)NC(=O)[C@@H]1CCCN1)C(=O)N[C@@H](Cc1ccccc1)C(=O)N[C@@H](CC(C)C)C(=O)N[C@@H](CO)C(=O)N1CCC[C@H]1C(=O)N[C@@H](CCC(=O)O)C(=O)N[C@@H](Cc1c[nH]cn1)C(=O)N[C@@H](CO)C(=O)N[C@@H](CCCNC(=N)N)C(=O)N[C@H](C(=O)N[C@@H](CO)C(=O)N[C@@H](CO)C(=O)N[C@@H](CCCNC(=N)N)C(=O)N1CCC[C@H]1C(=O)N[C@@H](CCC(=O)O)C(=O)N[C@@H](CO)C(=O)N[C@@H](CO)C(=O)N[C@@H](CO)C(=O)N1CCC[C@H]1C(=O)N1CCC[C@H]1C(=O)N[C@@H](C)C(=O)N[C@@H](CCCCN)C(=O)N[C@@H](CC(C)C)C(=O)N[C@@H](CO)C(=O)N1CCC[C@H]1C(=O)N[C@@H](CCCNC(=N)N)C(N)=O)C(C)C
B6: H-PS-S(O-octyl)-FLSPK-NH2 (peptide)
peptide: H-PSS(Octyl)FLSPK-NH2
SMILES: CCCCCCCCOC[C@H](NC(=O)[C@H](CO)NC(=O)[C@@H]1CCCN1)C(=O)N[C@@H](Cc1ccccc1)C(=O)N[C@@H](CC(C)C)C(=O)N[C@@H](CO)C(=O)N1CCC[C@H]1C(=O)N[C@@H](CCCCN)C(N)=O
B7: H-PS-S(O-octyl)-FLSPEHQRVQRKESKKPPAKLQPR-NH2 (peptide)
peptide: H-PSS(Octyl)FLSPEHQRVQRKESKKPPAKLQPR-NH2
SMILES: CCCCCCCCOC[C@H](NC(=O)[C@H](CO)NC(=O)[C@@H]1CCCN1)C(=O)N[C@@H](Cc1ccccc1)C(=O)N[C@@H](CC(C)C)C(=O)N[C@@H](CO)C(=O)N1CCC[C@H]1C(=O)N[C@@H](CCC(=O)O)C(=O)N[C@@H](Cc1c[nH]cn1)C(=O)N[C@@H](CCC(N)=O)C(=O)N[C@@H](CCCNC(=N)N)C(=O)N[C@H](C(=O)N[C@@H](CCC(N)=O)C(=O)N[C@@H](CCCNC(=N)N)C(=O)N[C@@H](CCCCN)C(=O)N[C@@H](CCC(=O)O)C(=O)N[C@@H](CO)C(=O)N[C@@H](CCCCN)C(=O)N[C@@H](CCCCN)C(=O)N1CCC[C@H]1C(=O)N1CCC[C@H]1C(=O)N[C@@H](C)C(=O)N[C@@H](CCCCN)C(=O)N[C@@H](CC(C)C)C(=O)N[C@@H](CCC(N)=O)C(=O)N1CCC[C@H]1C(=O)N[C@@H](CCCNC(=N)N)C(N)=O)C(C)C
B8: H-PS-S(O-octyl)-FLSPEHQRVQQRKES-K(hexadecanoyl-isoGlu)-KPPAKLQPR-NH2 (peptide)
peptide: H-PSS(Octyl)FLSPEHQRVQQRKESK([γGlu-Palmitoyl])KPPAKLQPR-NH2
SMILES: CCCCCCCCCCCCCCCC(=O)N[C@@H](CCC(=O)NCCCC[C@H](NC(=O)[C@H](CO)NC(=O)[C@H](CCC(=O)O)NC(=O)[C@H](CCCCN)NC(=O)[C@H](CCCNC(=N)N)NC(=O)[C@H](CCC(N)=O)NC(=O)[C@H](CCC(N)=O)NC(=O)[C@@H](NC(=O)[C@H](CCCNC(=N)N)NC(=O)[C@H](CCC(N)=O)NC(=O)[C@H](Cc1c[nH]cn1)NC(=O)[C@H](CCC(=O)O)NC(=O)[C@@H]1CCCN1C(=O)[C@H](CO)NC(=O)[C@H](CC(C)C)NC(=O)[C@H](Cc1ccccc1)NC(=O)[C@H](COCCCCCCCC)NC(=O)[C@H](CO)NC(=O)[C@@H]1CCCN1)C(C)C)C(=O)N[C@@H](CCCCN)C(=O)N1CCC[C@H]1C(=O)N1CCC[C@H]1C(=O)N[C@@H](C)C(=O)N[C@@H](CCCCN)C(=O)N[C@@H](CC(C)C)C(=O)N[C@@H](CCC(N)=O)C(=O)N1CCC[C@H]1C(=O)N[C@@H](CCCNC(=N)N)C(N)=O)C(=O)O
B9: H-PS-S(O-octyl)-FLSPEHSRPSSR-NH2 (peptide)
peptide: H-PSS(Octyl)FLSPEHSRPSSR-NH2
SMILES: CCCCCCCCOC[C@H](NC(=O)[C@H](CO)NC(=O)[C@@H]1CCCN1)C(=O)N[C@@H](Cc1ccccc1)C(=O)N[C@@H](CC(C)C)C(=O)N[C@@H](CO)C(=O)N1CCC[C@H]1C(=O)N[C@@H](CCC(=O)O)C(=O)N[C@@H](Cc1c[nH]cn1)C(=O)N[C@@H](CO)C(=O)N[C@@H](CCCNC(=N)N)C(=O)N1CCC[C@H]1C(=O)N[C@@H](CO)C(=O)N[C@@H](CO)C(=O)N[C@@H](CCCNC(=N)N)C(N)=O
B10: H-PS-Dap(N-octanoyl)-FLSPEHSRVSSRKES-K(hexadecanoyl-isoGlu)-KPPA-NH2 (peptide)
peptide: H-PS[Dap](Octanoyl)FLSPEHSRVSSRKESK([γGlu-Palmitoyl])KPPA-NH2
SMILES: CCCCCCCCCCCCCCCC(=O)N[C@@H](CCC(=O)NCCCC[C@H](NC(=O)[C@H](CO)NC(=O)[C@H](CCC(=O)O)NC(=O)[C@H](CCCCN)NC(=O)[C@H](CCCNC(=N)N)NC(=O)[C@H](CO)NC(=O)[C@H](CO)NC(=O)[C@@H](NC(=O)[C@H](CCCNC(=N)N)NC(=O)[C@H](CO)NC(=O)[C@H](Cc1c[nH]cn1)NC(=O)[C@H](CCC(=O)O)NC(=O)[C@@H]1CCCN1C(=O)[C@H](CO)NC(=O)[C@H](CC(C)C)NC(=O)[C@H](Cc1ccccc1)NC(=O)[C@H](CNC(=O)CCCCCCC)NC(=O)[C@H](CO)NC(=O)[C@@H]1CCCN1)C(C)C)C(=O)N[C@@H](CCCCN)C(=O)N1CCC[C@H]1C(=O)N1CCC[C@H]1C(=O)N[C@@H](C)C(N)=O)C(=O)O
B11: H-PS-S(O-octyl)-FLSPEHSRVSSRKESKSPPAKLSPR-NH2 (peptide)
peptide: H-PSS(Octyl)FLSPEHSRVSSRKESKSPPAKLSPR-NH2
SMILES: CCCCCCCCOC[C@H](NC(=O)[C@H](CO)NC(=O)[C@@H]1CCCN1)C(=O)N[C@@H](Cc1ccccc1)C(=O)N[C@@H](CC(C)C)C(=O)N[C@@H](CO)C(=O)N1CCC[C@H]1C(=O)N[C@@H](CCC(=O)O)C(=O)N[C@@H](Cc1c[nH]cn1)C(=O)N[C@@H](CO)C(=O)N[C@@H](CCCNC(=N)N)C(=O)N[C@H](C(=O)N[C@@H](CO)C(=O)N[C@@H](CO)C(=O)N[C@@H](CCCNC(=N)N)C(=O)N[C@@H](CCCCN)C(=O)N[C@@H](CCC(=O)O)C(=O)N[C@@H](CO)C(=O)N[C@@H](CCCCN)C(=O)N[C@@H](CO)C(=O)N1CCC[C@H]1C(=O)N1CCC[C@H]1C(=O)N[C@@H](C)C(=O)N[C@@H](CCCCN)C(=O)N[C@@H](CC(C)C)C(=O)N[C@@H](CO)C(=O)N1CCC[C@H]1C(=O)N[C@@H](CCCNC(=N)N)C(N)=O)C(C)C

What follows are binders tested against human growth hormone secretagogue receptor type 1a (human, UniProt Q92847 1-366) (assay: cell-based or functional assay).
human growth hormone secretagogue receptor type 1a, sequence (Q92847 whole entry): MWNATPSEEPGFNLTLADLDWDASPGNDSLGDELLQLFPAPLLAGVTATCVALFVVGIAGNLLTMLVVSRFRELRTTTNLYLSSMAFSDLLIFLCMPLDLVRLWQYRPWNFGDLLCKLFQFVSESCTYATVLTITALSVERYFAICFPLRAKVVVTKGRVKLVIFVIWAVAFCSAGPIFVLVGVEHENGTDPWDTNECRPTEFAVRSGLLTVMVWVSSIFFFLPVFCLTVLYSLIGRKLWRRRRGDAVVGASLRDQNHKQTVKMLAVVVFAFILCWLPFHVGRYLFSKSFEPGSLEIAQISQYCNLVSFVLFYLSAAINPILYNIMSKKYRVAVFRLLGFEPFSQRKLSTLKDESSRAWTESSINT
B1 was tested, and the “EC50 (nM); Ca2+ induction in HEK293 cells stably expressing the human ghrelin receptor” value (from here on “EC50 (nM); Ca2+ induction”) was 0.195 nM. B2 was tested, and the “EC50 (nM); Ca2+ induction” value was 0.359 nM. B3 was tested, and the “EC50 (nM); Ca2+ induction” value was 0.364 nM. H-PS[NH‑CH(n-C10H21)‑C(O)]FLSPK-NH2 [H-PS-[NH-CH(n-C10H21)-C(O)]-FLSPK-NH2] was tested, and the “EC50 (nM); Ca2+ induction” value was 0.432 nM. For B4, the “EC50 (nM); Ca2+ induction” value was 0.454 nM. With B5 the “EC50 (nM); Ca2+ induction” value was 0.525 nM. With B6 the “EC50 (nM); Ca2+ induction” value was 0.388 nM. For H-GSSFLSPEHQKAQQRKESKKPPAKLQPR-OH [rat ghrelin without octanoyl moiety at position 3], the “EC50 (nM); Ca2+ induction” value was over 1000 nM. In the case of B7, the “EC50 (nM); Ca2+ induction” value is reported as 0.33 nM. In the case of B8, the “EC50 (nM); Ca2+ induction” value is reported as 0.496 nM. For B9, the “EC50 (nM); Ca2+ induction” value was 0.341 nM. With B10 the “EC50 (nM); Ca2+ induction” value was 0.566 nM. For B11, the “EC50 (nM); Ca2+ induction” value was 0.296 nM. For H-PSS(Octanoyl)FLSPEHQRVQQRKESKKPPAKLQPR-OH [H-PS-S(O-octanoyl)-FLSPEHQRVQQRKESKKPPAKLQPR-OH], the “EC50 (nM); Ca2+ induction” value was 0.298 nM.
